Earlier results on one substance are cited in article PMC11809415, “Structure of the F-tractin–F-actin complex” (The Journal of Cell Biology, 2025).

For this series, the target named is F-actin (Oryctolagus cuniculus) (UniProt P68135).

Several values for one entry are separate records, joined by “and”; a condition that tells them apart may be missing. Equal entries are not always repeated.

Regarding Lifeact (from UniProt Q08641), the dissociation constant (Kd) (commonly the concentration at which binding is half-saturated) is 14.9 µM and 5.8 µM.
